Patent publication US20220348665A1 (ABL BIO, published 2022)
Where “and” joins values, the source holds several entries; their conditions need not be identical. Identical values can stand only once. Like-named read-outs stand apart in the source and are kept apart here. One block for each binder: values may come before it.

Key:
[1] = target: T1, alpha-synuclein aggregates (human alpha-synuclein, fibril) (human, UniProt P37840 1-140); test: SPR (BIAcore T200), antibody captured on protein A chip, 1:1 model
[2] = target: T1, alpha-synuclein aggregates (human …); test: SPR (BIAcore T200), antibody captured on Protein A chip, alpha-synuclein fibril as analyte (file ProteinA-Fibril-main-5th), 25 C, fit 1:1 Binding
[3] = target: T1, alpha-synuclein aggregates (human …); test: sandwich ELISA: antibody coated at 0.04 to 400 nM, 2000 ng/ml alpha-synuclein aggregates, biotin-conjugated antibody and HRP-streptavidin; value is C of the 4-P fit table under the plot, which the text calls EC50
[4] = target: T2, human IGF1R, endogenous, on the surface of breast cancer cell lines (MCF-7, JIMT-1, BT474) (human, UniProt P08069 31-1367); test: FACS on MCF-7 cells, antibody 10 ug/mL (2nd Ab only 2.86, not treated 1.88)
T2 construct: also called endogenous IGF1R on the cell surface; MCF-7 cell line

[5] = target: T1, alpha-synuclein aggregates (human …); test: SPR (BIAcore T200), antibody captured on Protein A chip, alpha-synuclein fibril as analyte (file ProteinA-Fibril-main-5th), 25 C, fit 1:1 Binding; remark: listed apart in the source
[6] = target: T3, monkey IGF1R, recombinant, His tag at C-terminus (monkey); test: ELISA, monkey IGF1R coated, anti-human Fab HRP
T3 construct: also called Monkey IGF1R (National Research Council Canada)

[7] = target: T1, alpha-synuclein aggregates (human …); test: ELISA on coated alpha-synuclein aggregates, antibody 5-fold dilutions from 400 nM, anti-human Fc-HRP; value is C of the 4-P fit table under the plot
[8] = target: T1, alpha-synuclein aggregates (human …); test: ELISA on alpha-synuclein aggregates coated at 1 ug/ml, antibody 5-fold dilutions from 400 nM, anti-human Fc-HRP; value is C of the 4-P fit table under the plot
[9] = target: T1, alpha-synuclein aggregates (human …); test: SPR (BIAcore T200), antibody captured on Protein A chip, alpha-synuclein fibril as analyte (file ProteinA-Fibril-main-5th), 25 C, fit 1:1 Binding; remark: listed apart in the source
[10] = target: T1, alpha-synuclein aggregates (human …); test: sandwich ELISA, antibody coated, aggregates 2000 ng/ml
[11] = target: T4, mouse IGF1R on bEND.3 mouse brain endothelial cells (mouse, UniProt Q60751 31-1373); test: FACS on bEND.3 mouse brain endothelial cells
T4 construct: whole, on cells; also called IGF1R expressed on the surface of brain endothelial cells
T4 sequence (Q60751 31-1373): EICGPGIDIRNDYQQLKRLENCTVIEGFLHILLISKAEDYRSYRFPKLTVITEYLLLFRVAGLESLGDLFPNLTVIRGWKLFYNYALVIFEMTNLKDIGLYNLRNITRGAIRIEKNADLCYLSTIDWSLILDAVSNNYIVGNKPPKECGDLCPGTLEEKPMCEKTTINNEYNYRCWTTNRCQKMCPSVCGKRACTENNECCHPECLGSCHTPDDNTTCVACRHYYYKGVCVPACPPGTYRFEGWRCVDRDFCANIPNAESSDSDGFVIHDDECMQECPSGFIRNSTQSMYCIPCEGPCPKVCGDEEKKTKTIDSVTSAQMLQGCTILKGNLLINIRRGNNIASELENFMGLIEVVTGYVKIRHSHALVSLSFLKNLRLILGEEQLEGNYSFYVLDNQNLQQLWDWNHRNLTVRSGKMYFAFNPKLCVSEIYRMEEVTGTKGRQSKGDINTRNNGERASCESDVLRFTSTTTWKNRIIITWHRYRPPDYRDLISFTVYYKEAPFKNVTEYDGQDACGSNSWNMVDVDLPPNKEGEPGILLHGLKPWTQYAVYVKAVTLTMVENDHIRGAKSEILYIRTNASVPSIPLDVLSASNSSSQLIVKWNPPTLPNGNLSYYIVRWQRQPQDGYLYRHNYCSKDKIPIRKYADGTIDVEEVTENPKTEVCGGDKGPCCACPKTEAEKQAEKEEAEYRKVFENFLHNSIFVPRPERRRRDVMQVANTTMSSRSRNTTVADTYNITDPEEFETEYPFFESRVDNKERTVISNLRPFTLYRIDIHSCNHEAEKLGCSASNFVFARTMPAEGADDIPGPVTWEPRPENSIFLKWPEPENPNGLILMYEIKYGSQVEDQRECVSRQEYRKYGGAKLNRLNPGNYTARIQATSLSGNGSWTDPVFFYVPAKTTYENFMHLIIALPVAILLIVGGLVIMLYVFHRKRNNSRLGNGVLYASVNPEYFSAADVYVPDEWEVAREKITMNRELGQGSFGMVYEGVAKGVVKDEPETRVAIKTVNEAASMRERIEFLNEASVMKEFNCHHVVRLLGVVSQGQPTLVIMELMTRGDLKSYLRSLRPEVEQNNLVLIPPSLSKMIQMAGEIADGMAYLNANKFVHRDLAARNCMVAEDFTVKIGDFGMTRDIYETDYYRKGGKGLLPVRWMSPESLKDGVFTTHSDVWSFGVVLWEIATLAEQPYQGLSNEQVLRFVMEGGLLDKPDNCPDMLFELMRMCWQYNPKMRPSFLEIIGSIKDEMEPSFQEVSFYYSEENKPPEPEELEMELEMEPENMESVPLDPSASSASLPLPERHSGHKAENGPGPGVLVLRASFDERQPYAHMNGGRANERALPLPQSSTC

[12] = target: T5, human IGF1R extracellular domain, recombinant, His tag at C-terminus (human, UniProt P08069 31-932); test: ELISA on coated IGF1R, antibody 5-fold dilutions from 400 nM, anti-human Fc-HRP; C of the 4-P fit (D 2.68), extrapolated: curve at baseline up to about 3 nM, about 0.8 at 80 nM and about 1.75 at 400 nM, no plateau; the text says this monospecific antibody did not bind
T5 construct: also called human IGF1R ECD; ECD of IGF1R

[13] = target: T5, human IGF1R extracellular domain, …; test: ELISA on coated IGF1R, antibody 5-fold dilutions from 400 nM, anti-human Fc-HRP; C of the 4-P fit (D 0.945, R^2 0.985), extrapolated: curve at baseline up to 16 nM, about 0.2 at 80 nM and about 0.75 at 400 nM, no plateau; the text says this monospecific antibody did not bind
[14] = target: T5, human IGF1R extracellular domain, …; test: ELISA, human IGF1R coated, anti-human Fab HRP
[15] = target: T5, human IGF1R extracellular domain, …; test: SPR (Biacore T200), His-tagged human IGF1R ECD captured by anti-his antibody on CM4 chip, bivalent model
[16] = target: T5, human IGF1R extracellular domain, …; test: SPR (Biacore T200), His-tagged human IGF1R ECD captured by anti-His antibody on CM4 chip, 1564 IgG as analyte, 25 C, fit Bivalent Analyte; lower panel
[17] = target: T5, human IGF1R extracellular domain, …; test: SPR (Biacore T200), His-tagged human IGF1R ECD captured by anti-His antibody on CM4 chip, 1564 IgG as analyte, 25 C, fit Bivalent Analyte; upper panel

B1: hu11F11(ver.4) (antibody, human IgG1, V domains shown)
VH: EVQLVESGGGLVQPGGSLRLSCATSGFTFSDFYMEWVRQPPGKRLEWIAASRNKANDYTTEYSASVKGRFTVSRDTSKSSLYLQMNSLRAEDTAIYYCARDAHGKPFAYWGQGTTVTVSS
VL: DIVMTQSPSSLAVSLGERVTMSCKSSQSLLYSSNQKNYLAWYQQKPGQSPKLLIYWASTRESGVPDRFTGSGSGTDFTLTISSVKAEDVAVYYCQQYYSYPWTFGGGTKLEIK
notes: Human IgG1 backbone
- Kd [1]: 0.0204 nM
- koff [2]: 0.000291 s⁻¹
- kon [2]: 1.07e+06 M⁻¹ s⁻¹
- EC50 [3]: 12.9 nM

B3: ch11F11-1564 (bivalent bispecific antibody: chimeric 11F11 IgG with 1564 scFv on each heavy chain) (bispecific antibody, not shown: a dimerising Fc or GST)
heavy (part 1 of 2): EVQLQESGGGLVQPGGSLRLSCATSGFTFSDFYMEWVRQPPGKRLEWIAASRNKANDYTTEYSASVKGRFIVSRDTSQSILYLQMNALRAEDTAIYYCARDAHGKPFAYWGQGTLVTVSA
heavy (part 2 of 2): GGGGSGGGGSGGGGSQSVLTQPPSASGTPGQRVTISCTGSSSNIGSNDVSWYQQLPGTAPKLLIYANSNRPSGVSDRFSGSKSGTSASLAISGLRSEDEADYYCGAWDDSLNGYVFGCGTKLTVLGGGGSGGGGSGGGGSGGGGSEVQLLESGGGLVQPGGSLRLSCAASGFTFSSYDMSWVRQAPGKCLEWVSAISYDNGNTYYADSVKGRFTISRDNSKNTLYLQMNSLRAEDTAVYYCAKGVLTTLMNWFDYWGQGTLVTVSS
light: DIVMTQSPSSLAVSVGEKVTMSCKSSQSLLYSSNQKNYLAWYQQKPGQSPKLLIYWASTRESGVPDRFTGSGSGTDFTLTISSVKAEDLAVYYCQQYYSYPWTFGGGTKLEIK
- EC50 [6]: 2.48 nM and 2.21 nM
- EC50 [7]: 1.5 nM
- EC50 [8]: 22.7 nM

B4: hu11F11(ver.1) (antibody, human IgG1, V domains shown)
VH: EVQLVESGGGLVQPGGSLRLSCATSGFTFSDFYMEWVRQPPGKRLEWIAASRNKANDYTTEYSASVKGRFTISRDDSKSSLYLQMNSLRAEDTAIYYCARDAHGKPFAYWGQGTTVTVSS
VL: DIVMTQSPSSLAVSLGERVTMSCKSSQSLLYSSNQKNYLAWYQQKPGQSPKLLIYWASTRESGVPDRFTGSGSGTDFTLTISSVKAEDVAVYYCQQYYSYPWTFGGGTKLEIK
notes: Human IgG1 backbone
- koff [9]: 5.36e-05 s⁻¹
- kon [9]: 845000 M⁻¹ s⁻¹
- EC50 [3]: 11.5 nM

B6: Ch11F11 (chimeric 11F11 antibody, human IgG1) (antibody, V domains shown)
VH: EVQLQESGGGLVQPGGSLRLSCATSGFTFSDFYMEWVRQPPGKRLEWIAASRNKANDYTTEYSASVKGRFIVSRDTSQSILYLQMNALRAEDTAIYYCARDAHGKPFAYWGQGTLVTVSA
VL: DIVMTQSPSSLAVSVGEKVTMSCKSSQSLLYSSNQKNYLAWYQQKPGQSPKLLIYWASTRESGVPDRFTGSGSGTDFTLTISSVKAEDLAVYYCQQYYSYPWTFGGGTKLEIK
notes: Chimeric human IgG1
- EC50 [10]: 12.5 nM
- binding result [11]: no binding
- Kd [1]: 0.0247 nM
- koff [9]: 0.000563 s⁻¹
- kon [9]: 609000 M⁻¹ s⁻¹
- EC50 [7]: 1.27 nM
- EC50 [8]: 33.8 nM
- EC50 [12]: 201 nM
- EC50 [13]: 196 nM

B7: 1564 IgG (anti-IGF1R clone 1564, full IgG1 form) (antibody, V domains shown)
VH: EVQLLESGGGLVQPGGSLRLSCAASGFTFSSYDMSWVRQAPGKGLEWVSAISYDNGNTYYADSVKGRFTISRDNSKNTLYLQMNSLRAEDTAVYYCAKGVLTTLMNWFDYWGQGTLVTVSS
VL: QSVLTQPPSASGTPGQRVTISCTGSSSNIGSNDVSWYQQLPGTAPKLLIYANSNRPSGVPDRFSGSKSGTSASLAISGLRSEDEADYYCGAWDDSLNGYVFGGGTKLTVL
- EC50 [14]: 0.0823 nM
- Kd [15]: 2.53 nM
- koff [16]: 2.53e-06 s⁻¹
- koff [17]: 2.41e-06 s⁻¹
- kon [17]: 902 M⁻¹ s⁻¹

Now from value to binder:

- Kd [1]: 0.0596 nM
- GeoMean, Internalization at 37° C. [4]: 3.18
- koff [5]: 0.000173 s⁻¹
- kon [5]: 1.19e+06 M⁻¹ s⁻¹
- EC50 [3]: 15.1 nM
B2: hu11F11(ver.2) (antibody, human IgG1, kappa, V domains shown)
VH: EVQLVESGGGLVQPGGSLRLSCATSGFTFSDFYMEWVRQPPGKRLEWIAASRNKANDYTTEYSASVKGRFTVSRDDSKSSLYLQMNSLRAEDTAIYYCARDAHGKPFAYWGQGTTVTVSS
VL: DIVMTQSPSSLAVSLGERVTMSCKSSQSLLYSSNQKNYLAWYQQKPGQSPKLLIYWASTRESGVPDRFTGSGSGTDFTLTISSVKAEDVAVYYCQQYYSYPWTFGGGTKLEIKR
notes: also called hu11F11 WT; humanized antibody 11F11 (ver. 2)

- Kd [1]: 0.0316 nM
- koff [5]: 0.000266 s⁻¹
- kon [5]: 1.07e+06 M⁻¹ s⁻¹
- EC50 [3]: 13.4 nM
B5: hu11F11(ver.3) (antibody, human IgG1, V domains shown)
VH: EVQLVESGGGLVQPGGSLRLSCATSGFTFSDFYMEWVRQPPGKRLEWIAASRNKANDYTTEYSASVKGRFTISRDTSKSSLYLQMNSLRAEDTAIYYCARDAHGKPFAYWGQGTTVTVSS
VL: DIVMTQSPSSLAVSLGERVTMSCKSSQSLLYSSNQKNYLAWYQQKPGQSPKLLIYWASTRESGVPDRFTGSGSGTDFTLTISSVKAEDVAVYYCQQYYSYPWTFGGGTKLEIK
notes: Human IgG1 backbone
